# Test results: paper PMC3765157 (PLoS ONE, 2013)
# Target: the molecule itself
# Assay: AUC
protein,measurement,value
"PrP-like ectodomain of mouse ZIP5 (Mm_ZIP5, residues 20-207), secreted from mammalian cells, deglycosylated (domain or fragment, also called ZIP5 ectodomain; PrP-like ZIP5 ectodomain) WVGGSVPNLGPAEQEQNHYLAQLFGLYGENGTLTAGGLARLLHSLGLGRVQGLRLGHHEPPTGRAAPTSGDNFTHRLQEPELSVDIWAGMPLGPSGWGDQEESKAPDLHGSGPSSLDLFQRLLLLDHSLADHLNEDCLNGSQLLVNFGLSPVAPLTPRQFALLSPALLYQIDSRVCIKTPAPAPPGDV",stoichiometry N,~2
